Publication PMC5415106
Values belong to the binder of their own block, whether it stands above or below them.

Columns and labels:
Test in all cases: GST pull-down, phosphorimaging
Conditions in all cases: chain shown with the change, 10 pmoles GST-Dpb11, read off a plot
[1] = target: T1, Sld3 (protein of Fig 3D; the legend prints 'CDK-phosphorylated Sld2'), P53135
T1 chain: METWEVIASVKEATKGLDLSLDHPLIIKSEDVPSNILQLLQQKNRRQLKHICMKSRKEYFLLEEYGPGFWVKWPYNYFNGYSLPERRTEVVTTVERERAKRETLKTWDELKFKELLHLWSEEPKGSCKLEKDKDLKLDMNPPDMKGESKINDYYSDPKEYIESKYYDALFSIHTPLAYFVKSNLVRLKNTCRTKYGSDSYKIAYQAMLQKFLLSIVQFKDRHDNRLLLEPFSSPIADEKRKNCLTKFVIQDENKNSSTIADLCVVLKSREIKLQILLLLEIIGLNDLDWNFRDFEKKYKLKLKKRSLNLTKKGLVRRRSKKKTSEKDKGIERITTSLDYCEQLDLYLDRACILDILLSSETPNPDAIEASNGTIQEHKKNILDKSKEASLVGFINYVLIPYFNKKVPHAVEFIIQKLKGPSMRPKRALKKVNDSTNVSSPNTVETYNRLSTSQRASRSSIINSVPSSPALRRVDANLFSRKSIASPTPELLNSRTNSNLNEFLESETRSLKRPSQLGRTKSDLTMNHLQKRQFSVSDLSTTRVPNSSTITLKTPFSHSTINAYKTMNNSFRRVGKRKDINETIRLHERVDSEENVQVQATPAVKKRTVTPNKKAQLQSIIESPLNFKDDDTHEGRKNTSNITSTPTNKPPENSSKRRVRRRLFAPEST

PKA-GINS, Q12488 = target: T2, PKA-GINS, Q12488
T2 chain 1: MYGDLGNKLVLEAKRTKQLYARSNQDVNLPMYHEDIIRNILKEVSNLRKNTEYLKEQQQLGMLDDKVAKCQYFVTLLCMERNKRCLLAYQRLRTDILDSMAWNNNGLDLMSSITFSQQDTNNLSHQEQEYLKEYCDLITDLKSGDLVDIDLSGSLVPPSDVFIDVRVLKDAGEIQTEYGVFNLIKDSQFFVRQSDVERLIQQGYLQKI
T2 chain 2: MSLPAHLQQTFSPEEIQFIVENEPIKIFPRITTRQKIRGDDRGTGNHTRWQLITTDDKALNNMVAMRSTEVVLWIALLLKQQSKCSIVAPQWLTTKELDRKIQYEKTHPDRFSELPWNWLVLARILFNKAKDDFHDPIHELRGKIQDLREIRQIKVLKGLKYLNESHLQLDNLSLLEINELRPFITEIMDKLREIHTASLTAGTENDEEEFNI
T2 chain 3: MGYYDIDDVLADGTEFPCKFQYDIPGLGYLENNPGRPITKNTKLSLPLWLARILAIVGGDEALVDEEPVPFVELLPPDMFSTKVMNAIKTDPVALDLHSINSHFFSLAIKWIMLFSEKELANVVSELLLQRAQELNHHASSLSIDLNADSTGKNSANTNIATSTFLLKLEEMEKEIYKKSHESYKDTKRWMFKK
T2 chain 4: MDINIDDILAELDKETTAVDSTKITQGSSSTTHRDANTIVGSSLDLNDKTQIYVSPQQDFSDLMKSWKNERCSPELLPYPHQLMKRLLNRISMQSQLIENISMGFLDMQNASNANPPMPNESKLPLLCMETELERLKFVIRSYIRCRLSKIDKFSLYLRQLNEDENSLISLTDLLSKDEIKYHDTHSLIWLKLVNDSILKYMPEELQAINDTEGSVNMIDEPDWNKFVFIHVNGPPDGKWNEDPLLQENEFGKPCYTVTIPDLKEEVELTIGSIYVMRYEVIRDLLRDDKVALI

[2] = target: T3, GST-Dpb11-wild-type, P47027
T3 chain: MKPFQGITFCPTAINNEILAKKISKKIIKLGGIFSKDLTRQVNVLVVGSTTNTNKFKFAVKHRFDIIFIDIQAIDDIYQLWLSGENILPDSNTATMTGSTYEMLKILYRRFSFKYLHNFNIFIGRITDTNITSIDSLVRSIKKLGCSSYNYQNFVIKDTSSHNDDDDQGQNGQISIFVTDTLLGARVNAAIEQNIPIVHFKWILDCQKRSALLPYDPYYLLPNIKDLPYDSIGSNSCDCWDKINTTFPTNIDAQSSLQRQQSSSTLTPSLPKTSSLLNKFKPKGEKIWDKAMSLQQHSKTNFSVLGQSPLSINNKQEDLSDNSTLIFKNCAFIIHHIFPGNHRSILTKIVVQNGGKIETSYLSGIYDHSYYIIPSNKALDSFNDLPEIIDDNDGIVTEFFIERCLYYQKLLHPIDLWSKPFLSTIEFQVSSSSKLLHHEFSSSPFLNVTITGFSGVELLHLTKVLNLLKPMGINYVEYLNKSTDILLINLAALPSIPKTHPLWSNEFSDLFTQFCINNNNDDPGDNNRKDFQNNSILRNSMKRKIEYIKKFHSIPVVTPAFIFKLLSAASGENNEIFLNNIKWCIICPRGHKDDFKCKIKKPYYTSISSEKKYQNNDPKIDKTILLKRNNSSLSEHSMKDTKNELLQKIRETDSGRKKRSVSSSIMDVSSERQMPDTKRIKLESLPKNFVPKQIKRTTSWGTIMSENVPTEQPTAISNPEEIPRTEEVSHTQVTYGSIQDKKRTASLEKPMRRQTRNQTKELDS

response ([1]; 1 pmole CDK-Sld3 input, parent: est. 0.34): 0.29 pmol
response ([1]; 3 pmoles CDK-Sld3 input, parent: est. 0.60): 0.65 pmol
response ([1]; 10 pmoles CDK-Sld3 input, parent: est. 1.5): 1.4 pmol
response (PKA-GINS, Q12488; 1 pmole GINS input, parent: est. 0.60): 0.65 pmol
response (PKA-GINS, Q12488; 3 pmoles GINS input, parent: est. 1.4): 1.4 pmol
response (PKA-GINS, Q12488; 10 pmoles GINS input, parent: est. 2.5): 2.6 pmol
B1: GST-Dpb11-wild-type, P47027 K463E; K469E; R538E; K549E (protein)
chain: MKPFQGITFCPTAINNEILAKKISKKIIKLGGIFSKDLTRQVNVLVVGSTTNTNKFKFAVKHRFDIIFIDIQAIDDIYQLWLSGENILPDSNTATMTGSTYEMLKILYRRFSFKYLHNFNIFIGRITDTNITSIDSLVRSIKKLGCSSYNYQNFVIKDTSSHNDDDDQGQNGQISIFVTDTLLGARVNAAIEQNIPIVHFKWILDCQKRSALLPYDPYYLLPNIKDLPYDSIGSNSCDCWDKINTTFPTNIDAQSSLQRQQSSSTLTPSLPKTSSLLNKFKPKGEKIWDKAMSLQQHSKTNFSVLGQSPLSINNKQEDLSDNSTLIFKNCAFIIHHIFPGNHRSILTKIVVQNGGKIETSYLSGIYDHSYYIIPSNKALDSFNDLPEIIDDNDGIVTEFFIERCLYYQKLLHPIDLWSKPFLSTIEFQVSSSSKLLHHEFSSSPFLNVTITGFSGVELLHLTEVLNLLEPMGINYVEYLNKSTDILLINLAALPSIPKTHPLWSNEFSDLFTQFCINNNNDDPGDNNRKDFQNNSILENSMKRKIEYIEKFHSIPVVTPAFIFKLLSAASGENNEIFLNNIKWCIICPRGHKDDFKCKIKKPYYTSISSEKKYQN

response ([2]; 1 pmole Sld2T84D input): 0.28 pmol
response ([2]; 3 pmoles Sld2T84D input): 0.64 pmol
response ([2]; 10 pmoles Sld2T84D input): 1.6 pmol
B2: Sld2 T84D (protein)
chain: MYSFELDKLKIELKTWEHDFIDKNKREPTRDDIKSLRTVRQMYKQYSTLKKKQSLQRQKVDTQESVELPAHKKDHDEVVEIGPDPQVYGKAISIFDMNLSPIKPIYMTFTNNIDVNNDNSKTISNESSPRKTILLKSSPADRTLVAEPISSVKRQLNFQMLNASSTRTPTSSPCKNRNGKLVEIKKCSPTINPPLESGKPSGYYGPNSPLKLDEENIHLNISLNSSTKRRLQIAYPSLQKTPSKDQADISTSFSPSPLIRRPLTKSLIELAREHTEIVKEFGVLQEEDIEEEEEGEEGENGYDEKNHEDDFGLEDELIRPKVVKDIFQEDDDNDDSQAREDTFIRKRPKRRKVIRRLRDNDPETETAGFERDVHKELVKLKRRKVAEFLGSTSQISDTEFEHDPEASSGVVSSEQKPTAKRKGRKKYNLVSNNFRRLKLPKKNRFSNGRWGRR
